For the test, the target named is T1, Heat shock factor 1 (HSF1), wild-type, monomer (human), Q00613.
T1 chain: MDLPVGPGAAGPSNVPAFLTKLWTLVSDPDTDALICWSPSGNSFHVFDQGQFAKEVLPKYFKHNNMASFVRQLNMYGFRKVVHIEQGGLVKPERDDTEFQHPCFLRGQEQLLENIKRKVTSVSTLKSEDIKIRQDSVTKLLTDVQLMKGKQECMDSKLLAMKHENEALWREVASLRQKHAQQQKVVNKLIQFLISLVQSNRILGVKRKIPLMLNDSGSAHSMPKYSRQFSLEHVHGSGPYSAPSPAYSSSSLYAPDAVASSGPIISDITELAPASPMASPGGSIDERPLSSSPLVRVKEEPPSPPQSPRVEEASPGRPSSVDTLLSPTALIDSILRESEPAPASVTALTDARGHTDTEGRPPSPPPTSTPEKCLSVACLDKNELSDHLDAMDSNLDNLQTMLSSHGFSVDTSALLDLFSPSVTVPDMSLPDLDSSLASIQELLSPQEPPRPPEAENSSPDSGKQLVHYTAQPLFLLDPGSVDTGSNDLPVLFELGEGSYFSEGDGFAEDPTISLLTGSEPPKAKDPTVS
Put plainly: SEC. Conditions: remark: other sources report otherwise.

B1: Heat shock factor 1 (HSF1), wild-type, monomer, Q00613 1-529 (natural protein)
chain: MDLPVGPGAAGPSNVPAFLTKLWTLVSDPDTDALICWSPSGNSFHVFDQGQFAKEVLPKYFKHNNMASFVRQLNMYGFRKVVHIEQGGLVKPERDDTEFQHPCFLRGQEQLLENIKRKVTSVSTLKSEDIKIRQDSVTKLLTDVQLMKGKQECMDSKLLAMKHENEALWREVASLRQKHAQQQKVVNKLIQFLISLVQSNRILGVKRKIPLMLNDSGSAHSMPKYSRQFSLEHVHGSGPYSAPSPAYSSSSLYAPDAVASSGPIISDITELAPASPMASPGGSIDERPLSSSPLVRVKEEPPSPPQSPRVEEASPGRPSSVDTLLSPTALIDSILRESEPAPASVTALTDARGHTDTEGRPPSPPPTSTPEKCLSVACLDKNELSDHLDAMDSNLDNLQTMLSSHGFSVDTSALLDLFSPSVTVPDMSLPDLDSSLASIQELLSPQEPPRPPEAENSSPDSGKQLVHYTAQPLFLLDPGSVDTGSNDLPVLFELGEGSYFSEGDGFAEDPTISLLTGSEPPKAKDPTVS
The molecule B1 had a stoichiometry N of 3.

Broadly, the stoichiometry N is a count of units in the complex or per binding partner.

For the origin of these results see paper PMC6174099.
